By Km is commonly meant the concentration of substrate that gives half-maximal velocity. By kcat is commonly meant the number of substrate molecules converted per active site and unit of time at saturation.

The record followed here is article PMC3419264, “ATPase Site Architecture Is Required for Self-Assembly and Remodeling Activity of a Hexameric AAA+ Transcriptional Activator” (Molecular Cell, 2012).

For this series, the system named is T1, Nc1ncnc2c1ncn2[C@@H]1O[C@H](COP(=O)(O)OP(=O)(O)OP(=O)(O)O)[C@@H](O)[C@H]1O.
T1 construct: AAA+ domain, residues 1-275; purified as in Joly et al. 2006; hexamer
In words: steady-state ATPase assay, NADH-coupled regeneration system. Conditions: 37 °C, without σ54, turnover given as Vmax (min^-1), maximal error 10%. The format is biochemical, Escherichia coli. An excerpt: steady-state ATPase assay, NADH-coupled regeneration system on PspF1-275
On to PspF1-275 (Escherichia coli K-12; E43A), for which the Km turned out to be 750 µM and the kcat stood at 1.37 ± 0.10 min⁻¹.
Take PspF1-275 (Escherichia coli K-12; E43Y): the Km is given as 1,250 μM and the kcat worked out at 2.49 ± 0.17 min⁻¹.
On to “PspF1-275 (Escherichia coli K-12; R162K)”, for which the Km was 200 µM and the kcat stood at 1.88 ± 0.29 min⁻¹.
For PspF1-275 (Escherichia coli K-12; E43D), the Km turned out to be 250 µM and the kcat amounted to 22.26 ± 4.80 min⁻¹.
As for “PspF1-275 (Escherichia coli K-12; Y126A)”, the Km amounted to 650 µM and the kcat is 11.95 ± 1.77 min⁻¹.
With “PspF1-275 (Escherichia coli K-12; R122A)”, the Km came out at 300 µM and the kcat is 1.26 ± 0.03 min⁻¹.
The matching figures for “PspF1-275 (Escherichia coli K-12; E118D)”: 800 µM and 20.23 ± 3.70 min⁻¹.
For PspF1-275 (Escherichia coli K-12; L9A), in that order: 2,300 μM and 20.72 ± 2.55 min⁻¹.
Take PspF1-275 (Escherichia coli K-12; L44A): the Km was 310 µM and the kcat came to 18.16 ± 2.42 min⁻¹.
The matching figures for “PspF1-275 (Escherichia coli K-12; R162A)”: 90 µM and 0.18 ± 0.02 min⁻¹.
